Patent publication US20070071750A1 (UNIVERSIDAD NACIONAL AUT NOMA DE M XICO UNAM, published 2007)

Tests used:
[1] = target: T1, toxin Cll1 from Centruroides limpidus limpidus (Centruroides limpidus limpidus, UniProt P45667 1-66); experiment: phage ELISA, Cll1 coated at 3 µg/ml, anti-M13-HRP, Abs. 492 nm
T1 sequence: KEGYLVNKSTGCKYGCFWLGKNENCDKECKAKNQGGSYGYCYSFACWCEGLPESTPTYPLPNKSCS

[2] = target: toxin Cll2 from Centruroides limpidus limpidus (Centruroides limpidus limpidus, UniProt P59898 1-66); experiment: phage ELISA, Cll2 coated at 3 µg/ml, anti-M13-HRP, Abs. 492 nm
[3] = target: T2, toxin Cn2 from Centruroides noxius Hoffmann scorpion venom (Centruroides noxius Hoffmann, UniProt P01495 17-82); experiment: SPR (Biacore), Cn2 immobilised, soluble scFv injected
T2 construct: mature; also called Cn2 toxin; formerly 11-9.2.2

BSA = target: T3, BSA (Bos taurus, UniProt P02769); experiment: phage ELISA, BSA coated, anti-M13-HRP, Abs. 492 nm
T3 construct: also called bovine serum albumin

B1: scFv C1 (scFv)
scFv: QVNLRESGGGLVQPGGSLRLSCAASGFSFGSYGMHWVRQAPGKGLEWVAVISYDGSNKYYADSVKGRFTISRDNSKNTLYLQMNSLRAEDTAVYYCAKDARDCLMCADWYFDLWGRGTLVTVSSGGGGSGGGGSGGGGSNFMLTQPHSASGTPGQRVTISCSGSSSNIGSNTVNWYRHLPGSAPELLIGSHNQRPSGVPDRFSASKSDTSASLAISGLQSEDEADYYCAAWDDSLIGYVFGTGTKLTVLG
notes: also called clone C1; phage-antibody C1
B1 was tested, and the binding result [1] was “no binding (tested: 1x10^11 phages/ml)”, the binding result [2] was “no binding (tested: 1x10^11 phages/ml)” and the Kd [3] was 540 nM. For the same binder, the koff [3] was 0.014 s⁻¹, the kon [3] was 20000 M⁻¹ s⁻¹ and the binding result (BSA) was “no binding (tested: 1x10^11 phages/ml)”.

B2: scFv 3F (scFv)
scFv: EVQLVESGGGLVQPGGSLRLSCAGSGFTFDNYAMHWIRQVPGEGLEWVSGISRSSGDIGYADSVKGRFTISRDNAKKSLSLQMNSLRAEDTAVYYCARGGVGSFDTWGQGTMVTVSSGGGGSGGGGSGGGGSEIVLTQSPATLSVSPGERATLSCRASQSVRSYLAWYQQKPGQAPRLLISDASNRATGIPARFTGSGSGTDFTLTISSLEPEDFAIYYCQQYRYSPRTFGQGTKVEIKR
notes: also called clone 3F; phage-antibody 3F
B2: no binding (tested: 1x10^11 phages/ml) [1]; no binding (tested: 1x10^11 phages/ml) [2]; no binding (tested: 1x10^11 phages/ml) (BSA).
